The results in this text go back to US11278600B2, “Human alpha-galactosidase variants” (Codexis, Inc., priority 2014, dated 2022).

Common to all, as to format: biochemical
Data set [1] can be described thus: HTP-analysis of supernatants pretreated with base (MUGal hydrolysis). The conditions noted are these: challenge at pH 8.2; activity of the variant/activity of Rd3BB (SEQ ID NO: 13); yeast culture supernatant. Summed up:
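Supernatants from INVSc1 yeast expressing GLA variants (SD-Ura, 66-84 h, 30° C) were mixed with McIlvaine buffer pH 7.0-8.2 or 200 mM sodium bicarbonate pH 9.1-9.7 and held 1-18 h at 37° C. Residual activity was then measured on MUGal at pH 4.8/4.3, 37° C, 30-180 min, by fluorescence (Ex 355/Em 448 nm).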

A short description of data set [2]: HTP-analysis of supernatants pretreated with bovine serum (MUGal hydrolysis). Particulars: activity of the variant/activity of Rd3BB (SEQ ID NO: 13), yeast culture supernatant. The method, boiled down:
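Yeast INVSc1 culture supernatants containing secreted GLA variants were mixed with bovine serum (20:80) and held 1 h at 37° C. Serum-treated samples then reacted with MUGal (4 mM stock) in citrate/McIlvaine buffer (pH 4.3/4.8) for 180 min at 37° C., were quenched with sodium carbonate, and read by fluorescence (Ex 355, Em 448 nm).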

A short description of data set [3]: HTP-analysis of yeast culture supernatants, no challenge (MUGal hydrolysis). The conditions noted are these: activity of the variant/activity of Rd3BB (SEQ ID NO: 13), yeast culture supernatant. The method, boiled down: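 Activity read as 4-methylumbelliferyl α-D-galactopyranoside hydrolysis: fluorescence (355/448 nm) after sodium carbonate stop, following 30-180 min at 37° C with 2 mM MUGal stock at pH 4.6–4.8. Enzyme source is unchallenged culture supernatant of INVSc1 yeast expressing GLA variants, grown 66-84 h at 30° C.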

A short description of data set [4]: HTP-analysis of supernatants pretreated with acid (MUGal hydrolysis). The conditions noted are these: challenge at pH 4.0; activity of the variant/activity of Rd3BB (SEQ ID NO: 13); yeast culture supernatant. The method, boiled down: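 GLA variants were secreted from INVSc1 yeast grown 66-84 h at 30° C. in SD-Ura with 2% glucose; supernatants were mixed with McIlvaine buffer pH 3.3-4.3 and held at 37° C. for 1-3 h. Residual activity on MUGal at pH 4.8 was then measured by fluorescence.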

B1: 338 (protein)
chain: LDNGLARTPTMGWLHWERFMCNLDCQEEPDSCISEKLFMEMAERMVSEGWKDAGYEYLCIDDCWMAPQRDSEGRLQADPQRFPHGIRQLANYVHSIGLKLGIYADVGNKTCAGFPGSFGYYDIDAQTFADWGVDLLKFDGCYCDSLENLADGYKHMSLALNRTGRSIVYSCEWPLYMWPFQKPNYTEIRQYCNHWRNFADIDDSWASIKSILDWTSRNQERIVDVAGPGGWNDPDMLVIGNFGLSWDQQVTQMALWAIMAAPLFMSNDLRHISPQAKALLQDKDVIAINQDPLGKQGYQLRQGDNFEVWERPLSGLAWAVAIINRQEIGGPRSYTIAVASLGKGVACNPGCFITQLLPVKRQLGFYNWTSRLKSHINPTGTVLLQLENTMQMSLKDLL
modifications: Synthetic Polypeptide sequence of Variant No. 338 of mature Human GLA
Turning to B1, the “Relative Activity of GLA Variants After Challenge at pH 8.2” value (“Relative Activity … at pH 8.2” below) in data set [1] is “+++ (+++ = >2.5 relative activity over Rd3BB (SEQ ID NO: 13))”. Moreover, in data set [2], the “Relative Activity of GLA Variants After Challenge with Serum” value (shortened to “Relative Activity … with Serum”) was “+++ (+++ = >2.5 relative activity over Rd3BB (SEQ ID NO: 13))”. Moreover, in data set [3], the “Relative Activity of GLA Variants After No Challenge (NC)” value is “++ (++ = >1.5 to 2.5 relative activity over Rd3BB (SEQ ID NO: 13))”. Also, in data set [4], the “Relative Activity of GLA Variants After Challenge at pH 4.0” value (from here on “Relative Activity … at pH 4.0”) is “+++ (+++ = >2.5 relative activity over Rd3BB (SEQ ID NO: 13))”.

B2: 340 (protein)
chain: LDNGLARTPTMGWLHWERFMCNLDCQEEPDSCISEKLFMEMAERMVSEGWKDAGYEYLCIDDCWMAPQRDSEGRLQADPQRFPHGIRQLANYVHSIGLKLGIYADVGNKTCAGFPGSFGYYDIDAQTFADWGVDLLKFDGCYCDSLENLADGYKHMSLALNRTGRSIVYSCEWPLYMWPFQKPNYTEIRQYCNHWRNFADIDDSWASIKSILDWTSRNQERIVDVAGPGGWNDPDMLVIGNFGLSWDQQVTQMALWAIMAAPLFMSNDLRHISPQAKALLQDKDVIAINQDPLGKQGYQLRQGDNFEVWERPLSGLAWAVAIINRQEIGGPRSYTIAVASLGKGVACNPGCFITQLLPVKRQLGFYNWSSRLKSHINPTGTVLLQLENTMQMSLKDLL
modifications: Synthetic Polypeptide sequence of Variant No. 340 of mature Human GLA
For the molecule B2, in data set [1], the “Relative Activity … at pH 8.2” value is “+ (+ = 0.5 to 1.5 relative activity over Rd3BB (SEQ ID NO: 13))”. In data set [2], the “Relative Activity … with Serum” value is on record as “+ (+ = 0.5 to 1.5 relative activity over Rd3BB (SEQ ID NO: 13))”. In addition, in data set [3], the “Relative Activity of GLA Variants After No Challenge (NC)” value is listed as “+ (+ = 0.5 to 1.5 relative activity over Rd3BB (SEQ ID NO: 13))”. Besides, the “Relative Activity … at pH 4.0” value in data set [4] is listed as “+ (+ = 0.5 to 1.5 relative activity over Rd3BB (SEQ ID NO: 13))”.

B3: 341 (protein)
chain: LDNGLARTPTMGWLHWERFMCNLDCQEEPDSCISEKLFMEMAERMVSEGWKDAGYEYLCIDDCWMAPQRDSEGRLQADPQRFPHGIRQLANYVHSIGLKLGIYADVGNKTCAGFPGSFGYYDIDAQTFADWGVDLLKFDGCYCDSLENLADGYKHMSLALNRTGRSIVYSCEWPLYMWPFQKPNYTEIRQYCNHWRNFADIDDSWASIKSILDWTSRNQERIVDVAGPGGWNDPDMLVIGNFGLSWDQQVTQMALWAIMAAPLFMSNDLRHISPQAKALLQDKDVIAINQDPLGKQGYQLRQGDNFEVWERPLSGLAWAVAIINRQEIGGPRSYTIAVASLGKGVACNPACFITQLLPVKRKLGFYNWSSRLKSHINPTGTVLLQLENTMQMSLKDLL
modifications: Synthetic Polypeptide sequence of Variant No. 341 of mature Human GLA
For B3, in data set [1], the “Relative Activity … at pH 8.2” value is on record as “+ (+ = 0.5 to 1.5 relative activity over Rd3BB (SEQ ID NO: 13))”. Moreover, the “Relative Activity … with Serum” value in data set [2] is given as “+ (+ = 0.5 to 1.5 relative activity over Rd3BB (SEQ ID NO: 13))”. Also, the “Relative Activity of GLA Variants After No Challenge (NC)” value in data set [3] was “− (− = <0.5 relative activity to Rd3BB (SEQ ID NO: 13))”. In addition, the “Relative Activity … at pH 4.0” value in data set [4] is “+ (+ = 0.5 to 1.5 relative activity over Rd3BB (SEQ ID NO: 13))”.

B4: 342 (protein)
chain: LDNGLARTPTMGWLHWERFMCNLDCQEEPDSCISEKLFMEMAERMVSEGWKDAGYEYLCIDDCWMAPQRDSEGRLQADPQRFPHGIRQLANYVHSIGLKLGIYADVGNKTCAGFPGSFGYYDIDAQTFADWGVDLLKFDGCYCDSLENLADGYKHMSLALNRTGRSIVYSCEWPLYMWPFQKPNYTEIRQYCNHWRNFADIDDSWASIKSILDWTSRNQERIVDVAGPGGWNDPDMLVIGNFGLSWDQQVTQMALWAIMAAPLFMSNDLRHISPQAKALLQDKDVIAINQDPLGKQGYQLRKGDNFEVWERPLSGDAWAVAIINRQEIGGPRSYTIPVASLGKGVACNPACFITQLLPVKRKLGFYNWTSRLKSHINPTGTVLLQLENTMQMSLKDLL
modifications: Synthetic Polypeptide sequence of Variant No. 342 of mature Human GLA
In the case of B4, in data set [1], the “Relative Activity … at pH 8.2” value is “+++ (+++ = >2.5 relative activity over Rd3BB (SEQ ID NO: 13))”. Besides, the “Relative Activity … with Serum” value in data set [2] is reported as “+++ (+++ = >2.5 relative activity over Rd3BB (SEQ ID NO: 13))”. Besides, the “Relative Activity of GLA Variants After No Challenge (NC)” value in data set [3] was “++ (++ = >1.5 to 2.5 relative activity over Rd3BB (SEQ ID NO: 13))”. Also, the “Relative Activity … at pH 4.0” value in data set [4] was “+++ (+++ = >2.5 relative activity over Rd3BB (SEQ ID NO: 13))”.

B5: 339 (protein)
chain: LDNGLARTPTMGWLHWERFMCNLDCQEEPDSCISEKLFMEMAERMVSEGWKDAGYEYLCIDDCWMAPQRDSEGRLQADPQRFPHGIRQLANYVHSIGLKLGIYADVGNKTCAGFPGSFGYYDIDAQTFADWGVDLLKFDGCYCDSLENLADGYKHMSLALNRTGRSIVYSCEWPLYMWPFQKPNYTEIRQYCNHWRNFADIDDSWASIKSILDWTSRNQERIVDVAGPGGWNDPDMLVIGNFGLSWDQQVTQMALWAIMAAPLFMSNDLRHISPQAKALLQDKDVIAINQDPLGKQGYQLRQGDNFEVWERPLSGLAWAVAIINRQEIGGPRSYTIAVASLGKGVACNPGCFITQLLPVKRQLGFYNWTSRLKSHINPTGTVLLQLENTMQMSLKDLL
modifications: Synthetic Polypeptide sequence of Variant No. 339 of mature Human GLA
For B5, the “Relative Activity … at pH 8.2” value in data set [1] is listed as “++ (++ = >1.5 to 2.5 relative activity over Rd3BB (SEQ ID NO: 13))”. In data set [2], the “Relative Activity … with Serum” value is on record as “+ (+ = 0.5 to 1.5 relative activity over Rd3BB (SEQ ID NO: 13))”. Besides, the “Relative Activity of GLA Variants After No Challenge (NC)” value in data set [3] is listed as “+ (+ = 0.5 to 1.5 relative activity over Rd3BB (SEQ ID NO: 13))”. Besides, in data set [4], the “Relative Activity … at pH 4.0” value was “+ (+ = 0.5 to 1.5 relative activity over Rd3BB (SEQ ID NO: 13))”.
